The values below come from patent US20230137139A1, “BIOSYNTHESIS OF CANNABINOIDS AND C[…]” (priority 2020, published 2023).

Assay [1] has as its system CBCA, THCA, and CBDA production. The assay is described as follows: In vivo TS activity assay, Example 2 protein engineering of A. niger CBCAS, cultures fed olivetolic acid. To be noted: for Mean CBCA / Mean CBDA / Mean THCA: secondary screen, olivetolic acid (Table 8); for % CBCA / % CBDA / % THCA: share of terminal cannabinoid product profile. The class given is cell-based, S. cerevisiae. Summed up: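 CBCA, THCA and CBDA were measured by LC-MS in methanol extracts of yeast cultures expressing mutant A. niger CBCAS. Cultures were induced at 20 °C with galactose and fed 1 mM olivetolic acid daily for 4 days, then buffered with 100 mM sodium citrate pH 5.5. Secondary screen: quadruplicates fed 1 mM olivetolic or divaric acid.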

The subject of assay [2] is CBCVA, THCVA, and CBDVA production. As to the kind of experiment: In vivo TS activity assay, Example 2 protein engineering of A. niger CBCAS, cultures fed divaric acid. In kind it is cell-based, S. cerevisiae. To be noted: fed divaric acid; for Mean CBCVA / Mean CBDVA / Mean THCVA: S. cerevisiae strains expressing A. niger CBCAS mutants, secondary screen; for % CBCVA / % CBDVA / % THCVA: share of terminal cannabinoid product profile. The method, boiled down:
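Quantification by LC-MS of methanol-extracted production cultures, strains in quadruplicate. Yeast carrying mutant A. niger CBCAS (MFalpha2 N-terminal and HDEL C-terminal signal peptides) were induced 4 days at 20 °C in YEP+4% galactose fed 1 mM divaric acid, re-dosed every 24 h with 2% galactose and 1 mM divaric acid, after 2 days of dextrose preculture at 30 °C; 100 mM citrate pH 5.5 was then added for 2 more days.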

B1: t878468 (protein)
chain: MGNTTSIAGRDCLISALGGNSALAVFPNELLWTADVHEYNLNLPVTPAAITYPETAEQIAGVVKCASDYDYKVQARSGGHSFGNYGLGGADGAVVVDMKHFTQFSMDDETYEAVIGPGTTLNDVDIELYNNGKRAMAHGVCPTIKTGGHFTIGGLGPTARQWGLALDHVEEVEVVLANSSIVRASNTQNQDVFFAVKGAAANFGIVTEFKVRTEPAPGLAVQYSYTFNLGSTAEKAQFVKDWQSFISAKNLTRQFYNNMVIFDGDIILEGLFFGSKEQYDALGLEDHFAPKNPGNILVLTDWLGMVGHALEDTILKLVGNTPTWFYAKSLGFRQDTLIPSAGIDEFFEYIANHTAGTPAWFVTLSLEGGAINDVAEDATAYAHRDVLFWVQLFMVNPVGPISDTTYEFTDGLYDVLARAVPESVGHAYLGCPDPRMEDAQQKYWRTNLPRLQELKEELDPKNTFHHPQGVMPA
modifications: expressed in S. cerevisiae strain
As to B1, in assay [1], the “Mean CBCA” value stood at 26823.18 µg/L, the “Mean CBDA” value is 8556.40 µg/L, the “Mean THCA” value turned out to be 1922.88 µg/L and the “% CBCA” value is reported as 71.91%. Moreover, in assay [1], the “% CBDA” value is recorded as 22.94% and the “% THCA” value was found to be 5.15%. Further, in assay [2], the “Mean CBCVA” value is 2954.90 µg/L, the “Mean CBDVA” value worked out at 0.00 µg/L, the “Mean THCVA” value was found to be 1628.92 µg/L and the “% CBCVA” value amounted to 64.46%. For the same molecule, in assay [2], the “% CBDVA” value was 0.00% and the “% THCVA” value came out at 35.54%.

B2: t865809 (protein)
chain: MGNTTSIAGRDCLISALGGNSALAVFPNELLWTADVHEYNLNLPVTPAAITYPETAAQIAGVVKCASDYDYKVQARSGGHSFGNYGLGGADGAVVVDMKHFTQFSMDDETYEAVIGPGTTLGDVDIELYNNGKRAMAHGVCPTIKTGGHFTIGGLGPTARQWGLALDHVEEVEVVLANSSIVRASNTQNQDVFFAVKGAAANFGIVTEFKVRTEPAPGLAVQYSYTFNLGSTAEKAQFVKDWQSFISAKNLTRQFYNNMVIFDGDIILEGLFFGSKEQYDALGLEDHFAPKNPGNILVLTDWLGMVGHALEDTILKLVGNTPTWFYAKSLGFRQDTLIPSAGIDEFFEYIANHTAGTPAWFVTLSLEGGAINDVAEDATAYAHRDVLFWVQLFMVNPVGPISDTTYEFTDGLYDVLARAVPESVGHAYLGCPDPRMEDAQQKYWRTNLPRLQELKEELDPKNTFHHPQGVMPA
modifications: expressed in S. cerevisiae strain
Regarding B2, in assay [1], the “Mean CBCA” value turned out to be 20413.40 µg/L, the “Mean CBDA” value was found to be 6738.75 µg/L, the “Mean THCA” value is 1390.36 µg/L and the “% CBCA” value amounted to 71.52%. In assay [1], the “% CBDA” value is given as 23.61% and the “% THCA” value is reported as 4.87%. In assay [2], the “Mean CBCVA” value came out at 3093.25 µg/L, the “Mean CBDVA” value turned out to be 0.00 µg/L, the “Mean THCVA” value was found to be 1662.32 µg/L and the “% CBCVA” value turned out to be 65.04%. Also, in assay [2], the “% CBDVA” value was 0.00% and the “% THCVA” value is listed as 34.96%.

B3: t878466 (protein)
chain: MGNTTSIAGRDCLISALGGNSALAVFPNELLWTADVHEYNLNLPVTPAAITYPETAAQIAGVVKCASDYDYKVQARSGGHSFGNYGLGGADGAVVVDMKHFTQFSMDDETYEAVIGPGTTLNDVDIELYNNGKRAMAHGVCPTIKTGGHFTIGGLGPTARKWGLALDHVEEVEVVLANSSIVRASNTQNQDVFFAVKGAAANFGIVTEFKVRTEPAPGLAVQYSYTFNLGSTAEKAQFVKDWQSFISAKNLTRQFYNNMVIFDGDIILEGLFFGSKEQYDALGLEDHFAPKNPGNILVLTDWLGMVGHALEDTILKLVGNTPTWFYAKSLGFRQDTLIPSAGIDEFFEYIANHTAGTPAWFVTLSLEGGAINDVAEDATAYAHRDVLFWVQLFMVNPVGPISDTTYEFTDGLYDVLARAVPESVGHAYLGCPDPRMEDAQQKYWRTNLPRLQELKEELDPKNTFHHPQGVMPA
modifications: expressed in S. cerevisiae strain
For the molecule B3, in assay [1], the “Mean CBCA” value came to 23882.09 µg/L, the “Mean CBDA” value was 8030.74 µg/L, the “Mean THCA” value worked out at 1649.00 µg/L and the “% CBCA” value was 71.16%. In addition, in assay [1], the “% CBDA” value is 23.93% and the “% THCA” value is 4.91%. In assay [2], the “Mean CBCVA” value worked out at 2985.03 µg/L, the “Mean CBDVA” value is 0.00 µg/L, the “Mean THCVA” value turned out to be 1623.40 µg/L and the “% CBCVA” value is 64.77%. Further, in assay [2], the “% CBDVA” value turned out to be 0.00% and the “% THCVA” value was 35.23%.

B4: t865795 (protein)
chain: MGNTTSIAGRDCLISALGGNSALAVFPNELLWTADVHEYNLNLPVTPAAITYPETAAQIAGVVKCASDYDYKVQARSGGHSFGNYGLGGADGAVVVDMKHFTQFSMDDETYEAVIGPGTTLNDVDIELYNNGKRAMAHGVCPTIKTGGHFTIGGLGPTARQWGLALDHVEEVEVVLANSSIVRASNTQNQDVFFAVKGAAANFGIVTEFKVRTEPAPGLAVQYSYTFNLGSTAEKAQFVKDWQSFISAKNLTRQFYNNMVIIDGDIILEGLFFGSKEQYDALGLEDHFAPKNPGNILVLTDWLGMVGHALEDTILKLVGNTPTWFYAKSLGFRQDTLIPSAGIDEFFEYIANHTAGTPAWFVTLSLEGGAINDVAEDATAYAHRDVLFWVQLFMVNPVGPISDTTYEFTDGLYDVLARAVPESVGHAYLGCPDPRMEDAQQKYWRTNLPRLQELKEELDPKNTFHHPQGVMPA
modifications: expressed in S. cerevisiae strain
For the molecule B4, in assay [1], the “Mean CBCA” value was determined as 24874.10 µg/L, the “Mean CBDA” value was determined as 7028.82 µg/L, the “Mean THCA” value amounted to 1807.99 µg/L and the “% CBCA” value came out at 73.79%. Besides, in assay [1], the “% CBDA” value is given as 20.85% and the “% THCA” value is given as 5.36%. In assay [2], the “Mean CBCVA” value amounted to 1897.16 µg/L, the “Mean CBDVA” value turned out to be 0.00 µg/L, the “Mean THCVA” value worked out at 1181.24 µg/L and the “% CBCVA” value was 61.63%. In assay [2], the “% CBDVA” value worked out at 0.00% and the “% THCVA” value was found to be 38.37%.

B5: t865758 (protein)
chain: MGNTTSIAGRDCLISALGGNSALAVFPNELLWTADVHEYNLNLPVTPAAITYPETAAQIAGVVKCASDYDYKVQARSGGHSFGNYGLGGADGAVVVDMKHFTQFSMDDETYEAVIGPGTTLNDVDIELYNNGKRAMAHGVCPTIKTGGHFTIGGLGPTARQWGLALDHVEEVEVVLANSSIVRASNTQNQDVFFAVKGAAANFGIVTEFKVRTEPAPGLAVQYSYTFNLGSTAEKAQFVKDWQSFISAKNLTRQFYNNMVIFDGDIILEGLFFGSKEQYDALGLEDHFAPKNPGNILVLTDWLGMVGHALEDTILKLVGNTPTWFYAKSLGFRQDTLIPSAGIDEFFEYIANHTAGTPAWFVTLSLEGGAINDVAEDATAYAHRDVLFWVQLFMVNPVGPISDTTYEFTDGLYDVLARAVPESVGHAYLGCPDPRMEDAQQKYWRTNLPRLQELKAELDPKNTFHHPQGVMPA
modifications: expressed in S. cerevisiae strain
For the molecule B5, in assay [1], the “Mean CBCA” value was found to be 26316.76 µg/L, the “Mean CBDA” value is 6998.62 µg/L, the “Mean THCA” value came to 1712.53 µg/L and the “% CBCA” value is reported as 75.13%. Moreover, in assay [1], the “% CBDA” value is on record as 19.98% and the “% THCA” value is given as 4.89%. Besides, in assay [2], the “Mean CBCVA” value is 3465.87 µg/L, the “Mean CBDVA” value came out at 0.00 µg/L, the “Mean THCVA” value worked out at 1548.62 µg/L and the “% CBCVA” value worked out at 69.12%. Besides, in assay [2], the “% CBDVA” value is listed as 0.00% and the “% THCVA” value stood at 30.88%.

B6: t865721 (protein)
chain: MGNTTSIAGRDCLISALGGNSALAVFPNELLWTADVHEYNLNLPVTPAAITYPETAAQIAGVVKCASDYDYKVQARSGGHSFGNYGLGGADGAVVVDMKHFTQFSMDDETYEAVIGPGTTLNDVDIELYNNGKRAMAHGVCPTIKTGGHFTIGGLGPTARQWGLALDHVEEVEVVLANSSIVRASNTQNQDVFFAVKGAAANFGIVTEFKVRTEPAPGLAVQYSYTFNLGSTAEKAQFVKDWQSFISAKNLTRQFFNNMVIFDGDIILEGLFFGSKEQYDALGLEDHFAPKNPGNILVLTDWLGMVGHALEDTILKLVGNTPTWFYAKSLGFRQDTLIPSAGIDEFFEYIANHTAGTPAWFVTLSLEGGAINDVAEDATAYAHRDVLFWVQLFMVNPVGPISDTTYEFTDGLYDVLARAVPESVGHAYLGCPDPRMEDAQQKYWRTNLPRLQELKEELDPKNTFHHPQGVMPA
In the case of B6, in assay [1], the “Mean CBCA” value stood at 21099.41 µg/L, the “Mean CBDA” value was found to be 5260.35 µg/L, the “Mean THCA” value was 1396.80 µg/L and the “% CBCA” value is on record as 76.02%. Further, in assay [1], the “% CBDA” value came to 18.95% and the “% THCA” value was 5.03%. Besides, in assay [2], the “Mean CBCVA” value turned out to be 3281.34 µg/L, the “Mean CBDVA” value came out at 0.00 µg/L, the “Mean THCVA” value was found to be 1482.54 µg/L and the “% CBCVA” value was found to be 68.88%. Moreover, in assay [2], the “% CBDVA” value came out at 0.00% and the “% THCVA” value stood at 31.12%.
